Experimental findings from US20020193329A1 (published 2002) are described below.

The assay deals with T1, Her-2/neu peptide on HLA-B*44:02 (human).
T1 peptide: EEYLVPQQGF
Kind of assay: cytokine release. The method, then:
This example describes the charaterization of the epitope recognized by one of the T cell clones described above, 17D5. This clone recognized APC expressing the ICD or full-length Her-2/neu protein. The HLA-restriction element for the clone was determined to be HLA-B4402 by using a panel of allogenic cell lines matched at various HLA alleles with the T cell clone as APC in gamma interferon Elispot assays. This was confirmed by transduction of HLA-B44-negative, Her-2/neu-positive APC with a B4402-recombinant retrovirus to confer recognition. The region of the ICD recognized by the clone was narrowed by using recombinant retroviruses expressing a series of five fragments of the ICD to transduce B44+APC. […] Predicted B44-binding 9 mer and 10 mer peptides from within this fragment were chosen and synthesized. Of the 13 peptides synthesized, one was recognized by the clone and determined to be the epitope. […] The sequence of this naturally processed Her-2/neu epitope is: […] (SEQ ID NO: 3), position 1021-1030 in the Her-2/neu protein sequence.

B1: TCR of the 17D5 T cell clone (TCR, V domains shown)
Valpha: AQSVAQPEDQVNVAEGNPLTVKCTYSVSGNPYLFWYVQYPNRGLQFLLKYITGDNLVKGSYGFEAEFNKSQTSFHLKKPSALVSDSALYFCAVRPNSGYSTLTFGKGTMLLVSP
Vbeta: EAQVTQNPRYLITVTGKKLTVTCSQNMNHEYMSWYRQDPGLGLRQIYYSMNVEVTDKGDVPEGYKVSRKEKRNFPLILESPSPNQTSLYFCASSLDWGGLAGGLGTDTQYFGPGTRLTVL
As for B1, the binding result was “recognises”.
